Consider two molecules from WO2007022015A1.

Experiment [1] concerns the target rodent (mouse) Aβ1-40 (mouse (rodent)) (UniProt P12023). Nature of the experiment: microplate assay on coated human and rodent Aβ1-40 and 1-42.
Experiment [2] deals with rodent (mouse) Aβ1-42 (mouse (rodent)) (UniProt P12023). The experiment is described as above.
The target of the next experiment is amyloid β (2-40) (human) (UniProt P05067). Description: sandwich ELISA, IAlO capture, HRP-14Fl detection, Abeta fragment 2-40. A general note: ELISA stands for enzyme-linked immunosorbent assay.
In another experiment the target is amyloid β (3-40) (human) (UniProt P05067). Description: sandwich ELISA, IAlO capture, HRP-14Fl detection, Abeta fragment 3-40.
Another experiment concerns the target human Aβ1-40 (human) (UniProt P05067). Nature of the experiment: sandwich ELISA, IAlO capture, HRP-14Fl detection, human and mouse Abeta 1-40.

For “Aβ N-terminal-end specific monoclonal antibody 82E1 (printed 82El)”, the cross-reactivity (against human Aβ) in experiment [1] and in experiment [2] was 10% throughout.

B1: 14F1, mouse/human cross-reactive N terminus end-specific anti-Abeta antibody (antibody, V domains shown)
VH: DVHLQASGPDLVRPSQSLSLTCTVTDYSITSDYSWHWIRQFPGNKLEWMGYILFSGSSNFNPSLKSRISITRDTSKNQFFLHLNSVTTEDTATYYCARRAYDGNFSWFAYWGQGTLVTVSA
VL: QAVVTQESALTTSPGETVTLTCRSSAGAVTISNYANWVQEKPDHLFTGLIGGTNNRAPGVPARFSGSLIGDKAALTITGAQTEDEAIYFCALWYGNYWVFGGGTKLTVLG
Consider B1, for which the figures for the cross reactivity (against full-length Abeta 1-40) in the experiment with amyloid β (2-40) (human) and with amyloid β (3-40) (human) were 0.78% and 0.08%, respectively. The cross reactivity (against mouse Abeta 1-40) with human Aβ1-40 (human) was 50%.
